Earlier results, collected in article PMC12203939.

Key:
[1] = biological target: PKA regulatory subunit RI (Homo sapiens) (UniProt P10644)
[2] = biological target: PKA regulatory subunit RII (Homo sapiens) (UniProt P13861)
Sequence of PKA regulatory subunit RII (Homo sapiens) (P13861 2-404): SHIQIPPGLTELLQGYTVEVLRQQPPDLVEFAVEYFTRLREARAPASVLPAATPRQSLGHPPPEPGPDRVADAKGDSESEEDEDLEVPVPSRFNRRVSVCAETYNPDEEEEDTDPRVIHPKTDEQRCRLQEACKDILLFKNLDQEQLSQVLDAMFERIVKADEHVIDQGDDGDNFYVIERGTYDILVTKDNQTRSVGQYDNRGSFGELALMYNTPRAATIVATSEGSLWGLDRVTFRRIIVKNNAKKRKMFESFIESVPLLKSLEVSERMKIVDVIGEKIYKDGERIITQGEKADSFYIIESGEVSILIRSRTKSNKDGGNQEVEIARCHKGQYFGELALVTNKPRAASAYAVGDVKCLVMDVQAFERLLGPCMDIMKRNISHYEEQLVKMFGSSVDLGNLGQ

Sequence of OPA1 (O60313 195-960): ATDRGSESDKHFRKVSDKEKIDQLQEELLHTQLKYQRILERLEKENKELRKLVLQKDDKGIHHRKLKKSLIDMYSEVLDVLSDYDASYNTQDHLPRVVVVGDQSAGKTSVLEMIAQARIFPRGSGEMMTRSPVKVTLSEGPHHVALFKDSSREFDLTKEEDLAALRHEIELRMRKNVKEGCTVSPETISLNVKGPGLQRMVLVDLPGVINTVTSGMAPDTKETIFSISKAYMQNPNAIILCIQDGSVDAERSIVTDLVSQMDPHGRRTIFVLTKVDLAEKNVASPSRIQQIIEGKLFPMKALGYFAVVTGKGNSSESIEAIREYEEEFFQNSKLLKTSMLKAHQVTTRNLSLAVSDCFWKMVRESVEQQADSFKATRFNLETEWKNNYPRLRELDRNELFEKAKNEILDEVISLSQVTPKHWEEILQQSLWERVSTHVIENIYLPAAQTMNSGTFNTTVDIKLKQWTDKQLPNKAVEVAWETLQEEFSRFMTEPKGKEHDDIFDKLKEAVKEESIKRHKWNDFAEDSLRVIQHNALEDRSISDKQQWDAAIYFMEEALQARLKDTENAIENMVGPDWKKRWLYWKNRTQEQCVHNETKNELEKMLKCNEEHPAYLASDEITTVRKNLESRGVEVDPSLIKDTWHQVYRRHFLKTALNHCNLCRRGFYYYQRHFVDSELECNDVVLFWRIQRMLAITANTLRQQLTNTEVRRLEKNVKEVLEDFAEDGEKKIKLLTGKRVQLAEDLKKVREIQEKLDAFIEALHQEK
Sequence of PKA regulatory subunit RI (Homo sapiens) (P10644 whole entry): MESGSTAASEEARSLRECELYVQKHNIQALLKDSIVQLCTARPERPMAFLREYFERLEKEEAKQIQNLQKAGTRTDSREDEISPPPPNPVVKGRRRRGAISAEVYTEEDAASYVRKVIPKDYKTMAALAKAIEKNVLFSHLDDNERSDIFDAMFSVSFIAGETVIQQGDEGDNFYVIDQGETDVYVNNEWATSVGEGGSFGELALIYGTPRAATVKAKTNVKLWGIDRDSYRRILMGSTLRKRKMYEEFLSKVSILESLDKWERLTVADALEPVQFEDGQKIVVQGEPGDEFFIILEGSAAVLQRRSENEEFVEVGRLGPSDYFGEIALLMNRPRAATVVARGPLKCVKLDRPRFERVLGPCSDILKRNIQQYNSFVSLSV

Kd [1]: 12.5 nM
Kd [2]: 14 nM
Substance: OPA1 (from UniProt O60313)
